Source: the domain aggregation screens of Martell et al. (2025)

Experiment: soluble fraction after stress (log2 fold change); higher = more stays soluble; pooled small domains, quantitative proteomics
Conditions: stress: 50 degC
How it was run: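 Pooled custom libraries of small protein domains were each held under stress at 50°C. The read-out, high-throughput quantitative proteomics, tracked how much of each protein stayed soluble. This is reported as a base-two log fold change used to indicate aggregation propensity. Higher values mean more protein remains in solution.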

| Sequence | soluble fraction (log2) |
| --- | --- |
| HMEDVTLSLVVGEDLDGERLDVFLTWKLDRTRSQVQALIRDGKVRLEQGQRARPSMVVRSGMGISVSLEPR | -1.49 |
| HMGEVEVPDLVGIEAIQAKTLLFNSDFLIKEFYDYDPTQPIGVVIRQAPEAGTTQTIGDSVTITINRA | -0.116 |
| HMAAEPDQQLIKPASDPVLRTMKIEELMKMSEQVKIQMSKAAKNFDYLEAARLRDEHFALENLIKLRS | 0.108 |
| HMGSNENTIREYFDSLIASASKREIMDANPTMSQRTVERILQKLQAEGYVEKIGAARSTRYRRA | -0.178 |
| HMSFNNHYEILQVQPSADREVIEAAAKALLKKHHPDLGGRNTITSHIVQAKKVLTDTSQRADFDARLRERL | -0.0959 |
| HMLTANPEEVVNRLTSAGEVGVRPLLDVDDPINAISTLLAIREDVYKQFAQFDTVGKSPSEIAHEIDDFL | 0.00575 |
| HMRTLSAGVAGRLRADILNGLLEPGRRLGMAELTERYGAGMSPVREALSRLVGEGLVQSEGQRGFRVA | -0.0944 |
| HMPIDQAKRKKEIIQNFGIRKIYKFSEIFDLKFGRDNIIVTFLIILDMIKEGVVEINENKEEIEFEYK | -0.166 |
| HMEMPGGVMRTLSTIAYNQPVLQSKLVKVRGPRAYEDVHILRDMGLVSARSVGQTVELSTTPKFAEQF | -0.265 |
| HMEAQAHYDAIYKAHPNADSIAQSAEFKAWVDAQPSVVRNAYWQLFDPKEGGTAEQIVEVFDAFVKSS | -0.151 |
| HMIIDTELMTRVMKFGFSQADASDLVAQHSDDLLRTAISRVEARAESKGMTPLETPAGYFRWTLQDLVRNP | -1.24 |
| HMDIKKHISATLKREMEKRGLNFMEFSTELGIPRTTLQGYLKGTSSPQADSLEELADKLGISPAELVSG | 0.15 |
| HMDVSLVEQTQRDILEYISKNNSNAQLPKEQEFVGLLGVSRVVVREALSRLRALGIIETKRKKGTVVVVPE | -0.165 |
| HMEPREEFTFADLRANGLNGTAAAAGRRAALGAALGIGYGNAKQFLRRLNHYGVTRSEWEAALADLDE | -0.419 |
| HMSYQFKIKNNAAVEVTVSEKNNLLGSTYGDKATVAAGMEKNVTFYTDKPDVVVDTNGNFTITVHDKEIII | 0.132 |
| HMFMMVAGHLQIKNEKYYMVLELRTEQGERKTKWIGTGLAVKGNKRRAEAMLEETRTKYLSPV | -1.95 |
| HMGDFLLQVDFPPALLEMLPEGKRQAAIGVLSHDPRPAYQRTPGRVYGLNFAGHNIRFAVSENLLTVLEV | -2.08 |
| HMNKEDIASNEKLLGLLNHMSKVLKDIDFIKDDRPMIVRKINHIFKKATLSEEEINILRGVLSAIENHS | -0.479 |
| HMAEPTLNERLREALSDPAKLKIAKAIKAKYPIITARDIDTFLNMHEKDIENGADPMDEFEEFFHANY | 0.127 |
| HMRLSPTMVETLIAMLNRNAYPAYENNSRTFASLEERGLIQPDIEGNWSLTDTGHQTALKLLK | 0.0915 |
| HMARLQEVVVRVPVEDGQTLAAIYREAEVIERADEGTGVLLTVRIPAPLLGRLRRLEGVHVQP | -0.125 |
| HMRGLVPEIVGTLEGEIRAGTLAVGQKLPTEAEIMARFDVSRTVVREALSRLQASDLVETRHGIGTFVSAR | -0.368 |
| HMGFVTVTEVDTTADLKLARVYVSVLGPEEQWAKSFTALESARGFVWNWLRKHLDLRVTPQLAF | -0.984 |

| Sequence | soluble fraction (log2) |
| --- | --- |
| HMNHTIEENDRVLILDPRGKKYLITVTNRVFHTNLGKLDISELIGKNYGDKIKSHMGKNFSILKPNLIDYI | -0.0858 |
| HMDLTKLFDHDSEYGKSYVFGKITDEMIARAEQTLGYRMPASYIELLKVQNGGMISDELDESWLTTIYGIG | -0.24 |
| HMKKTDFNVENYDIEELAAILNFKYVPLNQGLIRDRIKDMKQRFKNKPEYIKFFTDVEIKLVNNLNLFN | -1.24 |
| HMTKPLHELLSQREFQVFTQLAAGRSVGEIAQQLSLSSNTVSTYRARILEKTGTRNDVELALYAIRR | -1.52 |
| HMGMEENLLKERKQILMDIMKSKEYQPMKVKELAMVLNVPKEDREELRYVLNELMNEGKIVESKKGKFSIA | 0.177 |
| HMQPNVTRERILAAAMTVFAQKGWQKTSLDEVAAAAGMTKGAIYWHFRNKNDLFFALLDARLQRD | -1.97 |
| HMKLHPRDQERTRAISARGERLYAVTVGDLRRRIGEMLEWFGRQIESQEPMRVAKAARRITDFFDQVEAFT | -2.06 |
| HMGDKVLIQTAQRLKKDLPFASIVSRFGGDEFLIFLPGISSTERVETIVKKTVFLFIAISTTLF | -0.124 |
| HMATSNGEFVIPDGGLQFEELERSLLMQALKKSGGSQTGAARLLGLSRDTLRYRLEKFGIDAAAVRE | -0.165 |
| HMEPADALVAALVARGVSPSTARITVKQYPATRIQPQLEVFDYLVAQKDPKVSRNPPGFLLSAIRGEYA | -0.188 |
| HMNTPLYLKIREQIFDALRSGRWAANDPLPSETKLASEFEVSQGTIRKAIDDLVAQNILYRHQGRGTFIRR | -0.5 |
| HMLPIGSSREQVISSLNKMHQDYKEEGNFIYAGYFKQGLPLVPSPRISIALQFNETAHLEKIDATLNYV | -0.305 |
| HMTSPKSRIVSALLASPSRPEELAMRLGEDILTLMRTLTDFEASGIIQRLPDGRYTPTREYHLGLVDK | 0.0852 |
| HMTVLIDEQSSDGLLKITVTANTAVKSITIADELLEDKEQLEDYLILVLNKAIARANQVNQTELDAVAK | 0.317 |
| HMLPELIVTTKKGVTVTVTNGVITYSATSNGKATFTVPNYGKWTVSATINGTVISKVVDVTEAKQIPVLLG | 0.196 |
| HMITDNEFLRIVSFLKQRYGIDMSQKKVIMNGRLENYLKSGGWSSFDEYMNDVEKDTSGDLEKTLVNFLTT | -0.537 |
| HMRNLYEILGVSKDAPQGEIKSAYRKLAKTYHPDLNPNNEKAAELFKEINQAYEVLSDETKRRHYDQFGEA | 0.312 |
| HMEGPALKVWKARYLRAAILEQLLSDRWDDRGGQPIRVVVNEPTNSLLIRIPRHLWPEAEKLLQELDQR | -1.02 |
| HMNLLQAHLLRLESAALLAEVREVDRQLSRWLHPLTPQSDVAIIDERNWEAAVARLTELGVHIEEGRW | -2.92 |
| HMEILNYVVSDGQSGIRIDRYLSDSNEDLSRSYIQKLLKEQKVTVQGTFVKANYKVQAGDVITVEVPDMA | -0.946 |
| HMAPLVTLEADGNGAVKLSNLAGHSIREVAGALGGAGLSLIPVGSGTSWKQNPAPGTVLHSGDTVTVYF | 0.126 |
| HMKKTFSKSSVMEAIFRDIPNITIPNAHEVYTLIKNISVMNKRKSITSEDIEKAYDALGLTP | -0.865 |
| HMKTNQINVSGLSKEKNFEVLESLDVYKFYNLFFLNKIKIDQLINSYNHIDNYSVFKKYPSSLIVKLSE | 0.0996 |

| Sequence | soluble fraction (log2) |
| --- | --- |
| HMAPAILTVQVKPDKIREIIGPGGKMIRMIQSETNTRVEVDDSGLVKIAAVSKEEGEAALKMVSDITME | 0.134 |
| HMLTKGDRQSIRDSIIYMVGNAPRTLDYIVAESRYSEEDVIEAVRSLLSSHILSIDDSDMISLTRK | -0.448 |
| HMNLNIGNNIKNIRKSKNMTQTDFAELMGLSRSYIGDLENNRSNPSIKTLEAIARALDVPIVALIN | -0.399 |
| HMDGQGIRSITPEYYLSDSATKMPDASSSGWKSVPDDYIDKHYYWVRSKILWDDGTYTTTTPVL | -0.364 |
| HMKTPRKVFTVLIRNTEYDVYDIDGKEHQGYNDTPKTWWLYHSERLPEGMIPPIDSDSWKPYSVGT | -0.831 |
| HMGHKKLTIELQDEIIVLPKELEKYNLTVSDDKTSLIYTYKSRGEKTGITDLLRDIKDAGLRLKDLITEQ | 0.434 |
| HMSRAHTELEEKLLTMLEENDMTLPMRVISNIASRIEGIIIPEEKILEVLKKSYDRYREHQMD | 0.0257 |
| HMSKDKEKRTREHVLGILKKYDKVMTDKAFTVFKKMIKDESILEMELIKLINFIGERKEIRSKDVLAVVTE | 0.281 |
| HMSVHSAELKKLKAHLLGIIGRELETQPSTENREEMVRQILHQSYESLRLNLPMQLKEELFNEILAEVL | 0.353 |
| HMNNQVTFSKFLNEVEDGRVVEVNIQGNNITGVLSDGSKFKTFSPNYPNLVEKLSEKGVSINASPL | 0.1 |
| HMTSLGLEGLVNTTAIATSDLRPSGWALAGERKIFVVSEGEFIDNGDKIRILTVDGNRIVVRKETNK | -0.051 |
| HMRTEGNLGAKVRVLRRSQGMTQAELARRLGISPSYLNLIEHNRRSFTADLLVKLAKILPVNLKT | -1.36 |
| HMQNYLEFIGNELKALTSIPSPSGYTKDVAAYLMKTLSDMGYEPQLSNKGNVFVTIGGEGNPLVLAAHVD | -0.0984 |
| HMPPNRDDEHLQALRDYYAANRRIPSLQRVASLLGFSSRSAAVKLMGRLADEGFIERTADDDAWITGKRFF | -1.19 |
| HMGESFPYVAYATDSVRLRARPSSSATILTVIRKGDAVLITGADGSYKIVEYEGRKGYVVSAFLSSQET | -0.857 |
| HMNDGTIRVGTNVTIKPSAKRWATGQNIYYGVKGKTYKVIQMNGNRLLLDKVISWINKGDVYVPGS | -0.501 |
| HMRVPTVIGMDEGTAKATLANASLKSNIVYESDETKENGKVLSQGIEQNKEVKAGTTVEIKVNKIE | -0.0202 |
| HMGDLKSLIQATMDDAGISIKPDAMDYLISHLGSDRLTTRAELDKLILYAGADDKLDLDSVVELVG | -0.0746 |
| HMNDTVGMNIRRLRKERGMTQGDLADKAGIQRETISKYESNKLTPPSYNLESIEKALKVPAGTLAQ | 0.0652 |
| HMALALDDLFDRYEQLQDQSLGDKTEEGQELRAMIRAYIEQEGLSVRVTRSTTNRELLELIEQEMEG | -0.174 |
| HMGFLTKTQRLEILLHLKDEPYYNVEKLKELIKNRYGIVYQSSQSYYDLLKEAGLSWHQTQA | -0.64 |
| HMNVAELIEGHEAEIAEVLKEFSLLYLMRLADELGEMTKSSSGNGPFQVLKGLVYEEIARRG | -1.09 |
